Experiments:
[1] = target: T1, mouse LDL receptor (C2C12 cells) (mouse, UniProt P35951 22-862); test: flow cytometry on C2C12 cells, antibody at 30 µg/mL
T1 construct: whole, on cells; also called murine LDL-R
Procedure: (§1) The cross-reactivity of the anti-LDL-R antibodies was tested in the mouse (C2C12 cells), in the rat (YB2/0 cells), and in the hamster (CHO-K1 cells). The anti-LDL-R 12G4 antibodies were incubated at a final concentration of 30 μg/mL for 3 hours at 4° C. on C2C12, CHO-K1, and YB2/0 cells that had been cultured beforehand under LPDS conditions for 24 hours. The commercial 1C6 (anti-SREBP2, IgG) and C7 (anti-LDL-R, IgG2b) antibodies were used as negative and positive control antibodies, respectively. The detection of the bond was performed using an anti-IgG-PE antibody. The results were expressed as the percentage of fluorescent cells (FIG. 6A) and as mean fluorescence (FIG. 6B).

[2] = target: T2, rat LDL receptor (YB2/0 cells) (rat, UniProt P35952 22-879); test: flow cytometry on YB2/0 cells, antibody at 30 µg/mL
T2 construct: whole, on cells
Procedure: as §1

[3] = target: T3, hamster LDL receptor (CHO-K1 cells) (hamster, UniProt P35950 22-862); test: flow cytometry on CHO-K1 cells, antibody at 30 µg/mL
T3 construct: whole, on cells
Procedure: as §1

Measured: binding result

T2 sequence (P35952 22-879): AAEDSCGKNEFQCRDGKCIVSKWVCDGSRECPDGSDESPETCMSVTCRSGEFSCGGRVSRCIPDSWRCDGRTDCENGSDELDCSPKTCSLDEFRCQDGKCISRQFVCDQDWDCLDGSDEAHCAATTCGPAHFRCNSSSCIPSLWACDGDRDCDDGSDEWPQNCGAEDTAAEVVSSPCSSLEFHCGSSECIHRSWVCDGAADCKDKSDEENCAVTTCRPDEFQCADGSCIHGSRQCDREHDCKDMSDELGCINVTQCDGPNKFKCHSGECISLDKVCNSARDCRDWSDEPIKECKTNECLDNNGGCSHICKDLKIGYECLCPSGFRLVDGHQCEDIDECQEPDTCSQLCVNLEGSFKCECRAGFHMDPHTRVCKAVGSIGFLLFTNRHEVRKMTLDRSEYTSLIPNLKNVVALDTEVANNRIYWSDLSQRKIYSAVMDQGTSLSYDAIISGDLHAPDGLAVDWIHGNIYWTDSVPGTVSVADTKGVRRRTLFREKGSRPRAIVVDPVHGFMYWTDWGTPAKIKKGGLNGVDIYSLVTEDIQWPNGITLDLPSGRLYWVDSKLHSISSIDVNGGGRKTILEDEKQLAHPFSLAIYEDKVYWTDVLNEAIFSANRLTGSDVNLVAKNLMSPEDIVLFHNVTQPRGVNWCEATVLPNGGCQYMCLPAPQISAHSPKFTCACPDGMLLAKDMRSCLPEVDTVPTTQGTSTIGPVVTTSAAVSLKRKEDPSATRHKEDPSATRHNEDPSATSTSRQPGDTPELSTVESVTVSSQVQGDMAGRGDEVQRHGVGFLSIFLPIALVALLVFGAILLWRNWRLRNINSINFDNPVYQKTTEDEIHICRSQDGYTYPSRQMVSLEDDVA
T1 sequence (P35951 22-862): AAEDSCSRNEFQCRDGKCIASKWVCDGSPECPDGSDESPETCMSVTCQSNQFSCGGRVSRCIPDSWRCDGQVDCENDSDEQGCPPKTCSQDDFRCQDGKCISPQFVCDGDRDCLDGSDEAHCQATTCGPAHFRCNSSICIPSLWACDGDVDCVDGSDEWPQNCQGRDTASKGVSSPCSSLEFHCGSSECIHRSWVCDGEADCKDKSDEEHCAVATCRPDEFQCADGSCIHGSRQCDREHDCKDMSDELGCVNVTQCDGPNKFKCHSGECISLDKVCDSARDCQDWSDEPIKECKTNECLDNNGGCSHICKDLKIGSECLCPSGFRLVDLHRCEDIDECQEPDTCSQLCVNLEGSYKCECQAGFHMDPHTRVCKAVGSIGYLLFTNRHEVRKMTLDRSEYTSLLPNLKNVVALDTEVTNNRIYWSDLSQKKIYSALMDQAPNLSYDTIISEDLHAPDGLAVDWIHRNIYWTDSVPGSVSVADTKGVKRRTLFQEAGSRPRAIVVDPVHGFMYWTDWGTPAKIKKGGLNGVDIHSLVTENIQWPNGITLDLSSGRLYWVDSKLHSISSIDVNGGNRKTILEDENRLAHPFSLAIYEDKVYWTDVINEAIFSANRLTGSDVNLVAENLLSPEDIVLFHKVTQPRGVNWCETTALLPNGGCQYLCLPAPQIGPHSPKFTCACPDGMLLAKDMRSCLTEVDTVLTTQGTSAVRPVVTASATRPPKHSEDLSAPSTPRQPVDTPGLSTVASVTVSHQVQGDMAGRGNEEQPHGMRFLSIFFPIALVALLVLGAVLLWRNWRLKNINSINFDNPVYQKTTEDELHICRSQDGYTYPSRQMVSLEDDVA
T3 sequence (P35950 22-862): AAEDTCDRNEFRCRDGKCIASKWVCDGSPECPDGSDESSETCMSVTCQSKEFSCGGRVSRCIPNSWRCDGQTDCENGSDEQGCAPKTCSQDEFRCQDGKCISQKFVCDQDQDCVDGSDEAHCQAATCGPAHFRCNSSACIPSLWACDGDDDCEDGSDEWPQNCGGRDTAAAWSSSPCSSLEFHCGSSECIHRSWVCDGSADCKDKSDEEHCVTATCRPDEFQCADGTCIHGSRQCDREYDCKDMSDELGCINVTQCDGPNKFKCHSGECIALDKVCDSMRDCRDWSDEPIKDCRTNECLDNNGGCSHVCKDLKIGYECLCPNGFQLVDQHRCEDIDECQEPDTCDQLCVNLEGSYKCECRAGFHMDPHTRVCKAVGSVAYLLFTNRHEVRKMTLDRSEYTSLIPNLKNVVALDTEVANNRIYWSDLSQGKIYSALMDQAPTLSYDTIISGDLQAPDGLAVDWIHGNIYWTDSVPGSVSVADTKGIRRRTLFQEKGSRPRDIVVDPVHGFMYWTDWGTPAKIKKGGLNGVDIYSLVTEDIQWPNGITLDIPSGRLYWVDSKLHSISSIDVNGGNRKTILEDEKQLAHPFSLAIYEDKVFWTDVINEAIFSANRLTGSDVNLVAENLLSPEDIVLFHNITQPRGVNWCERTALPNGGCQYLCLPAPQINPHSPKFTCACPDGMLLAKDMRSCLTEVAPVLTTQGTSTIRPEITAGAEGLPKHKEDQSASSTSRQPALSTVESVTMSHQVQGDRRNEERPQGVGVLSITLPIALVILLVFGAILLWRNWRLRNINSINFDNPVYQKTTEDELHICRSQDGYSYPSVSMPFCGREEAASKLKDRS

B1: anti-LDL-R 12G4 antibody (antibody, mouse IgG1, V domains shown)
VH: QIQLVQSGPELKKPGETVKISCKASGYTFTKYGMNWVKQAPGKGLKWMGWINTNTGEPTYAEEFKGRFAFSLETSASTAFLQINNLKNEDTATYFCSRGGYYDSYWGQGTLVTVSA
VL: DIVMSQSPSSLAVSVGEKVTMSCKSSQSLLYSSSQKNYLAWYQQKPGQSPKVLIYWASTRESGVPDRFTGSGSGTDFTLTISSVKAEDLAVYYCQQYYTYRTFGGGTKLEIK
notes: Murine IgG1 kappa purified from ascites of hybridoma H12G4; also called anti-LDL-R 12G4 antibodies; monoclonal antibody produced by the H12G4 hybridoma (CNCM I-3487)
binds: all assays above

— patent US20090175789A1 (LFB BIOTECHNOLOGIES, published 2009)
